Measurements from article PMC6604391.
Where two headings read alike, the source gives them in different places.

Assays:
[1] = target: casein
[2] = target: casein; remark: listed apart in the source

- Km of casein hydrolysis (Lineweaver-Burk, pH 9.5, 70 °C) [1]: 0.275 mg/mL
- Km of casein hydrolysis (Lineweaver-Burk, pH 9.5, 70 °C) [2]: 0.295 mg/mL
Substance: SPPS, serine alkaline protease from Pleurotus sajor-caju strain CTM10057 (enzyme)
